Assay [1] deals with PptA, phosin (polyP-targeting protein) from Streptomyces chartreusis (Streptomyces chartreusis). The assay is described as follows: SEC.
The target is the same in assay [2]. The assay is described as follows: SAXS.

Consider “PptA, phosin (polyP-targeting protein) from Streptomyces chartreusis (natural protein)”, for which the stoichiometry N in assay [1] and in assay [2] was 2 in each case.

These data come from publication PMC6771595.
